Results: paper PMC5965902

Target: Cys128 (UniProt position 128, FIDQHCSLMKV)
Test: chemical modification (DTNB/Ellman labelling kinetics followed by UV-vis)
Details: room temperature; 150 mM NaCl; 50 mM citric acid, 50 mM HEPES, 50 mM Bicine, pH adjusted with NaOH or HCl; Free (reduced) thiol form of RitR, 5 μM protein with 20 μM DTNB, no DNA

Substance: RitR (Repressor of iron transport Regulator), orphan two-component-like response regulator (Streptococcus pneumoniae (strain R800, R6/D39 derivative))
- pKa: 6.85
